Read-outs that look alike come from different tables or passages of the source.

Data set [1] addresses T1, StAckA (Salmonella typhimurium acetate kinase, AckA) (Salmonella enterica, UniProt P63411).
T1 construct: expressed in E. coli; Ni-NTA and gel filtration; homodimer
T1 sequence (P63411 1-400): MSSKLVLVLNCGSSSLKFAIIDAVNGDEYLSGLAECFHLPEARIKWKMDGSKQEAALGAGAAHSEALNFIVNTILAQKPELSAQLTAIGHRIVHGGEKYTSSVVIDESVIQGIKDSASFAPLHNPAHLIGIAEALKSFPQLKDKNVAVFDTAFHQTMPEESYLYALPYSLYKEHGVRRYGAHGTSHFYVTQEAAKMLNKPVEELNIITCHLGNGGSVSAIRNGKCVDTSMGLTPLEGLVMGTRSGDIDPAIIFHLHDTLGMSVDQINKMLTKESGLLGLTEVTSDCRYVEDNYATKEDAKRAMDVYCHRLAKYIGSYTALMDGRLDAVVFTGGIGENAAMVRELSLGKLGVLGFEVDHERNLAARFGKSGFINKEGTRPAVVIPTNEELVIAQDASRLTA
Nature of the data set: kinetic assay after […] min preincubation at […] °C with inhibitor. It counts as biochemical.

Data set [2] concerns the target T1, StAckA (Salmonella typhimurium acetate kinase, AckA). Nature of the data set: initial velocity assay, acetyl-phosphate synthesis direction. The data set is classed as biochemical. As to conditions: co-substrate acetate, Mg2+, pH 7.5, 37 °C. The source says: (§1) initial velocity assay, acetyl-phosphate synthesis direction on StAckA (Salmonella typhimurium acetate kinase, AckA)

Data set [3] has the same target. Nature of the data set: CD thermal denaturation. The data set is classed as binding. Conditions: ligand close to its Km, pH 7.5; unliganded reference Tm 45 °C.
For data set [4] the target is unchanged. Briefly: inhibition of acetate utilization, kinetic assay. The data set is classed as biochemical. As to conditions: equimolar to acetate; not a substrate.
For data set [5] the target is unchanged. Briefly: X-ray crystal structure, […] Å. It counts as binding. Conditions: dimeric interface pocket, one citrate per dimer; citrate from crystallization condition.
Data set [6] has the same target. Briefly: CD thermal denaturation. The data set is classed as binding. As to conditions: read-out: dTm.
Substrate in data set [7]: CC(=O)O
Nature of the data set: purified protein. As to conditions: ATP, Mg2+, pH 7.5, 37 °C.

Substrate in data set [8]: Nc1nc2c(ncn2[C@@H]2O[C@H](COP(=O)(O)OP(=O)(O)OP(=O)(O)O)[C@@H](O)[C@H]2O)c(=O)[nH]1
Nature of the data set: initial velocity assay, acetyl-phosphate synthesis direction. Conditions: co-substrate acetate, Mg2+, pH 7.5, 37 °C. It counts as biochemical, Salmonella enterica.
Text: as §1

Substrate in data set [9]: O=c1ccn([C@@H]2O[C@H](COP(=O)(O)OP(=O)(O)OP(=O)(O)O)[C@@H](O)[C@H]2O)c(=O)[nH]1
The description is as above. It counts as biochemical, Salmonella enterica. As to conditions: co-substrate acetate, Mg2+, pH 7.5, 37 °C.
Text: as §1

Substrate in data set [10]: CC(=O)OP(=O)(O)O
Briefly: purified protein. It counts as biochemical, Salmonella enterica. Conditions: reverse reaction (ATP synthesis), ADP, Mg2+, pH 7.5, 37 °C.

Substrate in data set [11]: Nc1ncnc2c1ncn2[C@@H]1O[C@H](COP(=O)(O)OP(=O)(O)OP(=O)(O)O)[C@@H](O)[C@H]1O
Nature of the data set: purified protein. The data set is classed as biochemical, Salmonella enterica. As to conditions: co-substrate acetate, Mg2+, pH 7.5, 37 °C.

Substrate in data set [12]: Nc1ncnc2c1ncn2[C@@H]1O[C@H](COP(=O)(O)OP(=O)(O)O)[C@@H](O)[C@H]1O
Nature of the data set: purified protein. As to conditions: reverse reaction (ATP synthesis), acetyl-phosphate, Mg2+, pH 7.5, 37 °C. The data set is classed as biochemical, Salmonella enterica.

Substrate in data set [13]: CCC(=O)O
Nature of the data set: purified protein. The data set is classed as biochemical, Salmonella enterica. Conditions: ATP, Mg2+, pH 7.5, 37 °C.

In the case of `CCC(=O)C(=O)O` [2-KB], the IC50 in data set [1] (read-out: [I]) came to 3 ± 1.3 mM.

For `O=C(O)CCC(=O)O` [Succinate], the IC50 in data set [1] (read-out: Vmax(μmol min^-1 mg^-1)) worked out at 75 ± 20 mM.

With `Nc1ccn([C@@H]2O[C@H](COP(=O)(O)OP(=O)(O)OP(=O)(O)O)[C@@H](O)[C@H]2O)c(=O)n1` [CTP], the “kcat/Km(s^-1 mM^-1)” value in data set [2] was 0.088 ± 0.042 mM.

On to `CC(=O)OP(=O)(O)O` [Acetyl-phosphate], for which the Tm in data set [3] was determined as 54 °C.

As to `Nc1ncnc2c1ncn2[C@@H]1O[C@H](COP(=O)(O)OP(=O)(O)O)[C@@H](O)[C@H]1O` [ADP], in data set [3], the melting temperature (Tm) stood at 52 °C.

In the case of `O=C(O)C[C@H](O)C(=O)O` [Malate], the IC50 in [1] (read-out: [I]) was determined as 1 ± 0.5 mM.

With `CCCC(=O)O` [butyrate], in data set [4], the “% reduction of rate at equimolar concentration” value turned out to be 40%.

With `O=C(O)CC(O)(CC(=O)O)C(=O)O` [Citrate], the IC50 in data set [1] (read-out: Km) amounted to 63 ± 15 mM. Besides, the “X-ray crystal structure, 1.90 Å” value in data set [5] is reported as “only one citrate binds at the dimeric interface resulting in an asymmetric dimer”. The ΔTm at 10000 µM in data set [6] came out at 10 °C.

Consider `NCCC(N)C(=O)O` (stereo not drawn) [2,4-DAB], for which, in data set [1] (read-out: kcat/Km(s^-1 mM^-1), saturating cognate ligand, 37 °C), the IC50 is 5 ± 2.2 mM.

As to `O=C(O)CCC(=O)C(=O)O` [α-KG], the IC50 in data set [1] (read-out: kcat(s^-1)) was 7 ± 1.8 mM.

B1: StAckA (Salmonella typhimurium acetate kinase, AckA) (Salmonella enterica subsp. enterica serovar Typhimurium str. LT2) (protein)
chain: MSSKLVLVLNCGSSSLKFAIIDAVNGDEYLSGLAECFHLPEARIKWKMDGSKQEAALGAGAAHSEALNFIVNTILAQKPELSAQLTAIGHRIVHGGEKYTSSVVIDESVIQGIKDSASFAPLHNPAHLIGIAEALKSFPQLKDKNVAVFDTAFHQTMPEESYLYALPYSLYKEHGVRRYGAHGTSHFYVTQEAAKMLNKPVEELNIITCHLGNGGSVSAIRNGKCVDTSMGLTPLEGLVMGTRSGDIDPAIIFHLHDTLGMSVDQINKMLTKESGLLGLTEVTSDCRYVEDNYATKEDAKRAMDVYCHRLAKYIGSYTALMDGRLDAVVFTGGIGENAAMVRELSLGKLGVLGFEVDHERNLAARFGKSGFINKEGTRPAVVIPTNEELVIAQDASRLTA
notes: expressed in E. coli; Ni-NTA and gel filtration; homodimer
Consider B1, for which the Km in “purified protein [7]” came out at 1.2 ± 0.1 mM; in data set [8], 0.078 ± 0.027 mM; in data set [9] it was 0.0960 ± 0.058 mM; in “purified protein [10]” it was 0.28 ± 0.04 mM; in the data set “purified protein [11]”, 0.070 ± 0.005 mM; in the data set “purified protein [12]” it was 0.100 ± 0.003 mM. Moreover, the Km in “purified protein [13]” stood at 11.2 ± 0.1 mM. For the same molecule, the maximal velocity (Vmax) in “purified protein [7]” was found to be 1560 µmol/min/mg; in the data set “purified protein [10]”, 2350 µmol/min/mg; in the data set “purified protein [11]” it was 1550 µmol/min/mg; in “purified protein [12]”, 2340 µmol/min/mg; in the data set “purified protein [13]”, 1250 µmol/min/mg. The catalytic efficiency (kcat/Km) in the data set “purified protein [7]” turned out to be 985000 M⁻¹ s⁻¹; in “purified protein [10]” it was 6.3e+06 ± 45000 M⁻¹ s⁻¹; in “purified protein [11]”, 1.686e+07 ± 50000 M⁻¹ s⁻¹; in “purified protein [12]”, 1.7645e+07 ± 10000 M⁻¹ s⁻¹; in “purified protein [13]”, 85000 ± 10000 M⁻¹ s⁻¹. For the same molecule, the kcat in the data set “purified protein [10]” was determined as 1760 ± 25 s⁻¹; in the data set “purified protein [11]” it was 1170 ± 85 s⁻¹; in “purified protein [12]”, 1750 ± 65 s⁻¹; in “purified protein [13]”, 940 ± 85 s⁻¹.

These data come from PMC3475010 (BMC Structural Biology, 2012).
